Experiment [1] addresses LILRB1 on transiently transfected Expi293 cells (human, UniProt Q8NHL6 24-650). The experiment in a line: flow cytometry, transfected Expi293 cells. The method, then:
(§1) Non-transfected Expi293 cells were used as negative control. Cells were harvested and labeled with CellTraceViolet for multiplexing. […] Subsequently, cells were washed and stained with a secondary anti-human IgG labeled with AF647 for 30 minutes at 4° C. in the dark. Cells were washed again and mixed with 7-AAD viability dye before flow acquisition to test for surface binding.
Background: A flow cytometer gives signals particle by particle.

For experiment [2], the target named is LILRB2 on transiently transfected Expi293 cells (human, UniProt Q8N423 22-597). The experiment in a line: flow cytometry, transfected Expi293 cells. The method, then:
as §1

Experiment [3] concerns the target T1, LILRA2 on transiently transfected Expi293 cells (human, UniProt Q8N149 24-483).
T1 construct: whole, on cells
Put plainly: flow cytometry, transfected Expi293 cells. The method, then:
as §1

Experiment [4] deals with T2, recombinant LILRB1 ECD (human, UniProt Q8NHL6 24-461).
T2 construct: also called biotinylated LILRB1 ECD
The experiment in a line: ELISA, LILRB1 ECD binding to HLA-G-Fc. In short, it runs like this: (§2)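 Plates coated with 2 ug/mL B2M-HLA-G–mouse IgG2a-Fc. Antibodies (final 100 nM to 0.1 nM) premixed 1 h at room temperature with LILRB ECD/avidin-HRP, then applied to the HLA-G plate for 15 min. Residual LILRB binding read by TMB development.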
(In general: In an ELISA, binding on a coated surface is turned into a signal by an enzyme label.)

Experiment [5] concerns the target T3, recombinant LILRB2 ECD (human, UniProt Q8N423 22-460).
T3 construct: also called biotinylated LILRB2 ECD
Put plainly: ELISA, LILRB2 ECD binding to HLA-G-Fc. In short, it runs like this:
as §2

In experiment [6] the target is T3, recombinant LILRB2 ECD. The experiment in a line: BLI, IgG on AHC sensor, ECD in solution. Here is the method: (§3) Briefly, IgGs were captured on anti-human capture (AHC) biosensors (Sartorius). […] Subsequently, the sensors were dipped into 1× Kinetics Buffer to measure the dissociation over 420 s. All sensorgrams were double referenced against 1× Kinetics Buffer and unloaded […] sensors to subtract sensor drifts and potential reference binding of the analytes. The affinities were determined by applying a 1:1 binding model.

In experiment [7] the target is T2, recombinant LILRB1 ECD. Put plainly: BLI, IgG on AHC sensor, ECD in solution. Here is the method: as §3
For orientation: Biolayer interferometry detects binding as a change in optical thickness at a sensor tip.

Another experiment has as its target T4, recombinant LILRA3 (human, UniProt Q8N6C8 24-439).
T4 construct: whole entry named; also called LILRA3 ECD; LILA3
The experiment in a line: BLI, IgG on AHC sensor, ECD in solution; biochemical assay, monovalent KD on recombinant protein (Table 2): weak off-target binding, 575 nM. Here is the method: as §3

In another experiment the target is T5, recombinant LILRA1 ECD (human, UniProt O75019 17-461).
T5 construct: whole canonical entry named; also called LILA1
The experiment in a line: BLI, IgG on AHC sensor, ECD in solution; biochemical assay, monovalent KD on recombinant protein (Table 2): weak off-target binding, 962 nM. The method, then:
as §3

T3 sequence (Q8N423 22-460 limits assumed): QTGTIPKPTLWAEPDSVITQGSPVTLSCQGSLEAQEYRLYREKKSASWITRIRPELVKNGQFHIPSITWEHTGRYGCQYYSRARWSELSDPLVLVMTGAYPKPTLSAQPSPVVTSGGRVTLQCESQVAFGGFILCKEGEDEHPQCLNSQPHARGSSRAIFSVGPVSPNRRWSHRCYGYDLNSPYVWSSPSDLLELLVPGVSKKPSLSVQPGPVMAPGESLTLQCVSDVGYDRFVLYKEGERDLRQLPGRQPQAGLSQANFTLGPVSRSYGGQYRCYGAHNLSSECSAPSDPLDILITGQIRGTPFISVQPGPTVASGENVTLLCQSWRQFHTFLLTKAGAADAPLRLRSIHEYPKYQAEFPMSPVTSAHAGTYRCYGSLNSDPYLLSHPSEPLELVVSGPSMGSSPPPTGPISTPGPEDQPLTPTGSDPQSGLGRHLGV
T2 sequence (Q8NHL6 24-461 limits assumed): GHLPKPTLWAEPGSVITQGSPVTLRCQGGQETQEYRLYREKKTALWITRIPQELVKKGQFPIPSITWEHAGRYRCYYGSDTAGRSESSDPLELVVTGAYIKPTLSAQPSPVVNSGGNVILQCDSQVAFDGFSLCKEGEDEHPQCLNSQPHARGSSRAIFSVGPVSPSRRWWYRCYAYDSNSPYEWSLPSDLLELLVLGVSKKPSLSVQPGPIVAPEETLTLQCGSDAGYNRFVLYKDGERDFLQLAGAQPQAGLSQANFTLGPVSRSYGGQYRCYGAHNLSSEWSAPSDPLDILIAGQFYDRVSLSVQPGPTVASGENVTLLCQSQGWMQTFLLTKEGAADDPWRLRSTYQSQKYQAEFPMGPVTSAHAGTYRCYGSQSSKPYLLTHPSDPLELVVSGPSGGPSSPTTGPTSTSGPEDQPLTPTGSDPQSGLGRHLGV
Chain of LILRB1 on transiently transfected Expi293 cells (Q8NHL6 24-650 limits assumed): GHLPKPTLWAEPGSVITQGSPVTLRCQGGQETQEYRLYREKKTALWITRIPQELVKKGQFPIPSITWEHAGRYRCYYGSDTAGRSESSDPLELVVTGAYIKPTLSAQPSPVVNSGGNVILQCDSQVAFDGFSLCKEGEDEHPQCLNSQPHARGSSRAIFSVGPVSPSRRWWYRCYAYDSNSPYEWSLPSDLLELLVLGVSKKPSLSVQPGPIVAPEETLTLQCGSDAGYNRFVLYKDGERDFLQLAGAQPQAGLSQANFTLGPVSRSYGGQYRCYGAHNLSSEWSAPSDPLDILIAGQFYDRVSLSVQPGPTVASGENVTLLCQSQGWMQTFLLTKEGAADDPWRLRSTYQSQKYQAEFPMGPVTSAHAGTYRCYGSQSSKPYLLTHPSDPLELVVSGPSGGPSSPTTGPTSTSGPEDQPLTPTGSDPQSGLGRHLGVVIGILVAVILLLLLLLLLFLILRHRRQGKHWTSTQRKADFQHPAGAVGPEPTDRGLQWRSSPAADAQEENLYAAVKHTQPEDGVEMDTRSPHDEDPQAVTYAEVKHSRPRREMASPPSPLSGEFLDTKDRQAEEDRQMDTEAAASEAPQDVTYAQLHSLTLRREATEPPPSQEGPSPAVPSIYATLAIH
T4 sequence (Q8N6C8 24-439 limits assumed): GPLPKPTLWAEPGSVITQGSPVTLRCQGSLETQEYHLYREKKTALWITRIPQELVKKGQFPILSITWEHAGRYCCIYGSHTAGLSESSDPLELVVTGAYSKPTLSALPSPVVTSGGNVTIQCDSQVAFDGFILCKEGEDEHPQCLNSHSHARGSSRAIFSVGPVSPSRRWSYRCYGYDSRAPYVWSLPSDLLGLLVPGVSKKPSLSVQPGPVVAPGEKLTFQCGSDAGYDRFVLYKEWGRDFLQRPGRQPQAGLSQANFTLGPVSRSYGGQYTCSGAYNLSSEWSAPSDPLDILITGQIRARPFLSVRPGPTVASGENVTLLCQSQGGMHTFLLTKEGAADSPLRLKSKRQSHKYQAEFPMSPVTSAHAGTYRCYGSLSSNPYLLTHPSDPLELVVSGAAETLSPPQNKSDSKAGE
T5 sequence (O75019 17-461 limits assumed): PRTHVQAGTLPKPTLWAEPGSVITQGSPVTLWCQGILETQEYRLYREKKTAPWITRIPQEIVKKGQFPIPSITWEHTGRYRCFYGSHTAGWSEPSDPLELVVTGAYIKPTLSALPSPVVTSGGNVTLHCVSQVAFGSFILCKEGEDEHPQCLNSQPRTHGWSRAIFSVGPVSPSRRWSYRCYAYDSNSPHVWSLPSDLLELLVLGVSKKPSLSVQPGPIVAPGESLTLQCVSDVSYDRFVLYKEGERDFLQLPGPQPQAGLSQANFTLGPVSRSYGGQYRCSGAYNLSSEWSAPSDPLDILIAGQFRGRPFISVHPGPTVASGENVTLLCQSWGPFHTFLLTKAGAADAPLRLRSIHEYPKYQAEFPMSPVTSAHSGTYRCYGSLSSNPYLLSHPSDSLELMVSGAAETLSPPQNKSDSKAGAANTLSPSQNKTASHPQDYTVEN
T1 sequence (Q8N149 24-483): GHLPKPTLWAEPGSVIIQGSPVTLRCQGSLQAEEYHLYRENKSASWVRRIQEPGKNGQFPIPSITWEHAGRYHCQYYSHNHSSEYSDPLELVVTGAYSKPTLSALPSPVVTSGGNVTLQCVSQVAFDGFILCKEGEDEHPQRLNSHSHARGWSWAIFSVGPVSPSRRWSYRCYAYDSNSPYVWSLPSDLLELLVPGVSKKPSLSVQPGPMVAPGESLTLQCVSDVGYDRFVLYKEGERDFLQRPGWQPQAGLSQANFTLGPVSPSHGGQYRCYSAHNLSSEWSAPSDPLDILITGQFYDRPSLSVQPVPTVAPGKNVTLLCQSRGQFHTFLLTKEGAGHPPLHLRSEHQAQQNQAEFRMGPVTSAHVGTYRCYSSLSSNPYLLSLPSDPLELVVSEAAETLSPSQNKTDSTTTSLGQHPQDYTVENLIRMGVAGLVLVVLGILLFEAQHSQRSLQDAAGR
Chain of LILRB2 on transiently transfected Expi293 cells (Q8N423 22-597 limits assumed): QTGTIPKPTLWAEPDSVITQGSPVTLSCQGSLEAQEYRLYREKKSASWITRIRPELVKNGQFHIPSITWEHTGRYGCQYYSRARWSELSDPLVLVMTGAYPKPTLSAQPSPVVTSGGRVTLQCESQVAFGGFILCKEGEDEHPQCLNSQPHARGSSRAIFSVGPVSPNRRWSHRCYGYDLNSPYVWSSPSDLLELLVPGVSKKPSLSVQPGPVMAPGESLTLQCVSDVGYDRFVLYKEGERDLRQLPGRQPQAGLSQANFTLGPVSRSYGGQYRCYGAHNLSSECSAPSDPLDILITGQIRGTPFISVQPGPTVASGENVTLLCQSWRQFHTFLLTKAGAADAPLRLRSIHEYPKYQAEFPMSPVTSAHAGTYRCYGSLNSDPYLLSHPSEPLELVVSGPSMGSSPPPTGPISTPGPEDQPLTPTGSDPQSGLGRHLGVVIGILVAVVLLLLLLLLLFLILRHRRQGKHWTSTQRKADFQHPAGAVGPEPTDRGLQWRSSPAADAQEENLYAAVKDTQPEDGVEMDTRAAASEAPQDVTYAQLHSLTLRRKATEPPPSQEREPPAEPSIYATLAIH

B1: A-045 (antibody, V domains shown)
VH: QVQLVQSGAEVKKPGSSVKVSCKASGGTFQSQAFAWVRQAPGQGLEWMGSIIPGFSTANYAQKFQGRVTITADESTSTAYMELSSLRSEDTAVYYCAKDLGTYSSGWPYYYGMDVWGQGTTVTVSS
VL: SYELTQPPSVSVSPGQTASITCSGDKLGDKYASWYQQKPGQSPVLVIYQDSKRPSGIPERFSGSNSGNTATLTISGTQAEDEADYYCQLTHLTIYVFGGGTKLTVL
notes: tested as IgG; HC of A-010 and LC of A-036
As usually defined, the EC50 is the concentration at which the effect is half-maximal. Lower therefore signals greater potency. The IC50 is the point on the concentration scale where inhibition reaches its midpoint. As usually defined, the Kd is the concentration at which binding is half-saturated. In the case of B1, the figures for the 50% effective concentration (EC50) in [1] and in experiment [2] were 1.5 nM and 1.3 nM, respectively. The binding result in experiment [3] is listed as “no binding”. The IC50 is 2.1 nM in the experiment with recombinant LILRB1 ECD [4] and 3.5 nM in the experiment with recombinant LILRB2 ECD [5]. The dissociation constant Kd in the experiment with recombinant LILRB2 ECD [6] is 2.8 nM; with recombinant LILRB1 ECD [7], 2.3 nM; with recombinant LILRA3 it was 575 nM; in the experiment with recombinant LILRA1 ECD, 962 nM.

The values above are taken from patent US20260209345A1 (IOMX THERAPEUTICS, published 2026).
